Consider eleven variants from IntAct's records for PubMed 26601939.

Sequences and labels used below:
B1: Syndecan-4 (Rattus norvegicus (Rat)), P34901 (parent)
chain: MAPVCLFAPLLLLLLGGFPVAPGESIRETEVIDPQDLLEGRYFSGALPDDEDAGGLEQDSDFELSGSGDLDDTEEPRTFPEVISPLVPLDNHIPENAQPGIRVPSEPKELEENEVIPKRVPSDVGDDDVSNKVSMSSTSQGSNIFERTEVLAALIVGGVVGILFAVFLILLLVYRMKKKDEGSYDLGKKPIYKKAPTNEFYA
partner: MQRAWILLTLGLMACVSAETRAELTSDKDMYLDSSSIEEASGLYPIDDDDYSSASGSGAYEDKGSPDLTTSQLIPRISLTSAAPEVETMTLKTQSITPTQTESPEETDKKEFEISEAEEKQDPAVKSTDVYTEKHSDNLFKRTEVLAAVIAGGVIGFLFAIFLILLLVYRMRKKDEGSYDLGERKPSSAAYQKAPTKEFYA
B2: Syndecan-2 (Rattus norvegicus (Rat)), P34900 (parent)
chain: B1 partner
B3: Syndecan-2 (Rattus norvegicus (Rat)), P34900 (parent)
chain: B1 partner
partner: B1 chain
B4: Syndecan-4 (Rattus norvegicus (Rat)), P34901 (parent)
chain: B1 chain
B5: Syndecan-1 (Rattus norvegicus (Rat)), P26260 (parent)
chain: MRRAALWLWLCALALRLQPALPQIVTANVPPEDQDGSGDDSDNFSGSGTGALPDMTLSRQTPSTWKDVWLLTATPTAPEPTSRDTEATLTSILPAGEKPEEGEPVAHVEAEPDFTARDKEKEATTRPRETTQLPVTQQASTAARATTAQASVTSHPHGDVQPGLHETLAPTAPGQPDHQPPSVEDGGTSVIKEVVEDETTNQLPAGEGSGEQDFTFETSGENTAVAGVEPDLRNQSPVDEGATGASQGLLDRKEVLGGVIAGGLVGLIFAVCLVAFMLYRMKKKDEGSYSLEEPKQANGGAYQKPTKQEEFYA
partner: B1 partner
B6: Syndecan-4 (Rattus norvegicus (Rat)), P34901 (parent)
chain: B1 chain
partner: B5 chain
B7: Syndecan-2 (Rattus norvegicus (Rat)), P34900 (parent)
chain: B1 partner
partner: B5 chain

One test covers variants of B1. Particulars: with sdc2_rat Sdc2, P34900.
As for F164Y, the “effect of a mutation on the interaction” value was “decreasing interaction strength”.

Variants of B2 are the subject of the next test. Particulars: with sdc3_rat Sdc3, P33671.
Chain of sdc3_rat Sdc3, P33671 (P33671 whole entry): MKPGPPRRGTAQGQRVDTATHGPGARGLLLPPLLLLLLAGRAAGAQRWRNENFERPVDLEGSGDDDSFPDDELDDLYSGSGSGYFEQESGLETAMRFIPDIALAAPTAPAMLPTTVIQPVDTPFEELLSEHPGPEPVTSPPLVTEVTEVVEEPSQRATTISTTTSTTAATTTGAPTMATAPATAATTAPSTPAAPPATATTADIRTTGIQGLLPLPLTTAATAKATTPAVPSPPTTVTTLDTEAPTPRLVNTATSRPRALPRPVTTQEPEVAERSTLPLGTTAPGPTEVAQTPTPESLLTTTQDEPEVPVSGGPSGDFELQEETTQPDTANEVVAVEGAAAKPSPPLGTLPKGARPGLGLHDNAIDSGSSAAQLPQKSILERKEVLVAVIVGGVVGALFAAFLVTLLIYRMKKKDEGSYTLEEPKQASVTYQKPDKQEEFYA
Turning to F159Y, the “effect of a mutation on the interaction” value is given as “decreasing interaction strength”.

Variants of B3 are the subject of the next test. Particulars: with sdc4_rat Sdc4, P34901.
In the case of F159Y, the “effect of a mutation on the interaction” value was “decreasing interaction strength”.

On to F162Y, for which the “effect of a mutation on the interaction” value is recorded as “with no effect”.

On to F157Y, for which the “effect of a mutation on the interaction” value is recorded as “disrupting interaction strength”.

Variants of B3 are the subject of another test. Particulars: with sdc4_rat Sdc4, P34901. This is another data set of the same source.
For the variant F159Y, the “effect of a mutation on the interaction” value was “decreasing interaction”.

Variants of B3 are the subject of the next test. As to conditions: with sdc4_rat Sdc4, P34901. This is another data set of the same source.
For F159Y, the “effect of a mutation on the interaction” value is “disrupting interaction strength”.

In a further test the parent is B4. Particulars: with sdc3_rat Sdc3, P33671.
Take F164Y: the “effect of a mutation on the interaction” value is recorded as “decreasing interaction strength”.

The variants in the next test derive from B5. As to conditions: with sdc2_rat Sdc2, P34900.
F269Y: the “effect of a mutation on the interaction” value is on record as “disrupting interaction strength”.

In the case of F269Y;C272F, the “effect of a mutation on the interaction” value is “disrupting interaction strength”.

On to C272F, for which the “effect of a mutation on the interaction” value was “with no effect”.

In another test the parent is B6. As to conditions: with sdc1_rat Sdc1, P26260.
Turning to F164Y, the “effect of a mutation on the interaction” value is “decreasing interaction strength”.

Variants of B7 are the subject of the next test. As to conditions: with sdc1_rat Sdc1, P26260.
For the variant F162Y, the “effect of a mutation on the interaction” value is recorded as “with no effect”.
